IntAct's records for PubMed 25619834

B1: Influenza virus NS1A-binding protein (Homo sapiens), Q9Y6Y0 (parent)
chain: MIPNGYLMFEDENFIESSVAKLNALRKSGQFCDVRLQVCGHEMLAHRAVLACCSPYLFEIFNSDSDPHGISHVKFDDLNPEAVEVLLNYAYTAQLKADKELVKDVYSAAKKLKMDRVKQVCGDYLLSRMDVTSCISYRNFASCMGDSRLLNKVDAYIQEHLLQISEEEEFLKLPRLKLEVMLEDNVCLPSNGKLYTKVINWVQRSIWENGDSLEELMEEVQTLYYSADHKLLDGNLLDGQAEVFGSDDDHIQFVQKKPPRENGHKQISSSSTGCLSSPNATVQSPKHEWKIVASEKTSNNTYLCLAVLDGIFCVIFLHGRNSPQSSPTSTPKLSKSLSFEMQQDELIEKPMSPMQYARSGLGTAEMNGKLIAAGGYNREECLRTVECYNPHTDHWSFLAPMRTPRARFQMAVLMGQLYVVGGSNGHSDDLSCGEMYDSNIDDWIPVPELRTNRCNAGVCALNGKLYIVGGSDPYGQKGLKNCDVFDPVTKLWTSCAPLNIRRHQSAVCELGGYLYIIGGAESWNCLNTVERYNPENNTWTLIAPMNVARRGAGVAVLNGKLFVCGGFDGSHAISCVEMYDPTRNEWKMMGNMTSPRSNAGIATVGNTIYAVGGFDGNEFLNTVEVYNLESNEWSPYTKIFQF

Variants of: B1
Settings: with cul3_human CUL3, Q13618

Variant	effect of a mutation on the interaction
F75L	causing an interaction
M114L	causing an interaction
